In article PMC8215294:
Several values for one entry are separate records, joined by “and”; a condition that tells them apart may be missing. Identical values can stand only once.

Assays:
[1] = molecular target: Arabidopsis thaliana thimet oligopeptidase TOP1, full-length (A. thaliana) (UniProt Q94AM1); experiment: SEC; purified His-tagged TOPs treated 30 min at RT with DTTred, DTTox, GSH or GSSG, purified again and dialysed; XBridge BEH200A SEC column, 50 mM sodium phosphate, 150 mM NaCl, 0.02% NaN3, pH 7.0
TOP1^C611A, Q94AM1 = molecular target: T1, TOP1^C611A, Q94AM1; experiment: size-exclusion chromatography (SEC), peak area quantification; conditions: chain shown with the change; treatment (Ctrl or GSSG) not stated for this panel; parent: est. 38; read off a plot
T1 chain: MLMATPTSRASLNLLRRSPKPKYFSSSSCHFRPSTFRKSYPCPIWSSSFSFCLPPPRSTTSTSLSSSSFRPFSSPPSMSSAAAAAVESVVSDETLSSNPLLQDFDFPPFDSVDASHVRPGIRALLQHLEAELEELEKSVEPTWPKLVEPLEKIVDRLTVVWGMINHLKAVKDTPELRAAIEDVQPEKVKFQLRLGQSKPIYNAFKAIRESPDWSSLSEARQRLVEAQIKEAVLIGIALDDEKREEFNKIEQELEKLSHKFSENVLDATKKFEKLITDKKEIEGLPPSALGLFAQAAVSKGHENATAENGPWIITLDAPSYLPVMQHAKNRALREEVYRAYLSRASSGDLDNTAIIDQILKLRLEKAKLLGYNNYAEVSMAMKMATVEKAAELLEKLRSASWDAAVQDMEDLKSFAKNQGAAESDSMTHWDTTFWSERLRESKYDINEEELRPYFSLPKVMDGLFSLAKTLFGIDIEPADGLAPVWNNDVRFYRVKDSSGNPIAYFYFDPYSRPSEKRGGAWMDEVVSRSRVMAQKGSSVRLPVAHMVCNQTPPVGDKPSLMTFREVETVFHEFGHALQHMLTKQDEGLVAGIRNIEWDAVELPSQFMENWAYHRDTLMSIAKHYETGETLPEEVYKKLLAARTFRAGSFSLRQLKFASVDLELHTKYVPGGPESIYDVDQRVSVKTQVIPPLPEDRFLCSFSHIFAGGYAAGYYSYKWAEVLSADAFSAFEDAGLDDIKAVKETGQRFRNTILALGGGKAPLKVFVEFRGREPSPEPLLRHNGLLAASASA

TOP1^C699A, Q94AM1 = molecular target: T2, TOP1^C699A, Q94AM1; experiment: as above; conditions: chain shown with the change; treatment (Ctrl or GSSG) not stated for this panel; parent: est. 38; read off a plot
T2 chain: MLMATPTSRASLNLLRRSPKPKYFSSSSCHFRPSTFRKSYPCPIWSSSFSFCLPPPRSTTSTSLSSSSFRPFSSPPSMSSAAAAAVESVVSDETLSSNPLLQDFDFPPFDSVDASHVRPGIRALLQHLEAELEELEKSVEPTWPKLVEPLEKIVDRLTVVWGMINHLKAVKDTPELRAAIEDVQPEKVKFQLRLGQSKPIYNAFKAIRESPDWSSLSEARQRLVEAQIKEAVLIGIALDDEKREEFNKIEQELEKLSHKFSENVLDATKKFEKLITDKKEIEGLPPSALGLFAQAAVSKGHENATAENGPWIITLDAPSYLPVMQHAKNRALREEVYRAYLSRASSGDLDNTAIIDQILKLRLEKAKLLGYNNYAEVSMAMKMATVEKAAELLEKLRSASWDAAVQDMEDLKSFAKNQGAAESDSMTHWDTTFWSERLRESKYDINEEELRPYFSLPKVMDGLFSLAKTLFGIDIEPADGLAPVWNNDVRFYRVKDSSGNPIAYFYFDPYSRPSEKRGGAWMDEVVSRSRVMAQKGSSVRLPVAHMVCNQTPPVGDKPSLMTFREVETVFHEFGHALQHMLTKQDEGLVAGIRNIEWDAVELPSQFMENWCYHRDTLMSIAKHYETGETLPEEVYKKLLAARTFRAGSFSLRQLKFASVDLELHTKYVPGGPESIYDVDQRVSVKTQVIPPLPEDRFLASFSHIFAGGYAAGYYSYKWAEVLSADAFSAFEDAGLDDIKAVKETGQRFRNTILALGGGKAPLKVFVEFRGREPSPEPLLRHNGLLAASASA

Arabidopsis thaliana thimet oligopeptidase TOP1, full-length (from UniProt Q94AM1 83-791) (enzyme)
stoichiometry N [1]: 2 and 3

B1: Arabidopsis thaliana thimet oligopeptidase TOP1, full-length, Q94AM1 C611A (protein)
chain: MLMATPTSRASLNLLRRSPKPKYFSSSSCHFRPSTFRKSYPCPIWSSSFSFCLPPPRSTTSTSLSSSSFRPFSSPPSMSSAAAAAVESVVSDETLSSNPLLQDFDFPPFDSVDASHVRPGIRALLQHLEAELEELEKSVEPTWPKLVEPLEKIVDRLTVVWGMINHLKAVKDTPELRAAIEDVQPEKVKFQLRLGQSKPIYNAFKAIRESPDWSSLSEARQRLVEAQIKEAVLIGIALDDEKREEFNKIEQELEKLSHKFSENVLDATKKFEKLITDKKEIEGLPPSALGLFAQAAVSKGHENATAENGPWIITLDAPSYLPVMQHAKNRALREEVYRAYLSRASSGDLDNTAIIDQILKLRLEKAKLLGYNNYAEVSMAMKMATVEKAAELLEKLRSASWDAAVQDMEDLKSFAKNQGAAESDSMTHWDTTFWSERLRESKYDINEEELRPYFSLPKVMDGLFSLAKTLFGIDIEPADGLAPVWNNDVRFYRVKDSSGNPIAYFYFDPYSRPSEKRGGAWMDEVVSRSRVMAQKGSSVRLPVAHMVCNQTPPVGDKPSLMTFREVETVFHEFGHALQHMLTKQDEGLVAGIRNIEWDAVELPSQFMENWAYHRDTLMSIAKHYETGETLPEEVYKKLLAARTFRAGSFSLRQLKFASVDLELHTKYVPGGPESIYDVDQRVSVKTQVIPPLPEDRFLCSFSHIFAGGYAAGYYSYKWAEVLSADAFSAFEDAGLDDIKAVKETGQRFRNTILALGGGKAPLKVFVEFRGREPSPEPLLRHNGLLAASASA
other: percent dimer (TOP1^C611A, Q94AM1): 3.5%

B2: Arabidopsis thaliana thimet oligopeptidase TOP1, full-length, Q94AM1 C699A (protein)
chain: MLMATPTSRASLNLLRRSPKPKYFSSSSCHFRPSTFRKSYPCPIWSSSFSFCLPPPRSTTSTSLSSSSFRPFSSPPSMSSAAAAAVESVVSDETLSSNPLLQDFDFPPFDSVDASHVRPGIRALLQHLEAELEELEKSVEPTWPKLVEPLEKIVDRLTVVWGMINHLKAVKDTPELRAAIEDVQPEKVKFQLRLGQSKPIYNAFKAIRESPDWSSLSEARQRLVEAQIKEAVLIGIALDDEKREEFNKIEQELEKLSHKFSENVLDATKKFEKLITDKKEIEGLPPSALGLFAQAAVSKGHENATAENGPWIITLDAPSYLPVMQHAKNRALREEVYRAYLSRASSGDLDNTAIIDQILKLRLEKAKLLGYNNYAEVSMAMKMATVEKAAELLEKLRSASWDAAVQDMEDLKSFAKNQGAAESDSMTHWDTTFWSERLRESKYDINEEELRPYFSLPKVMDGLFSLAKTLFGIDIEPADGLAPVWNNDVRFYRVKDSSGNPIAYFYFDPYSRPSEKRGGAWMDEVVSRSRVMAQKGSSVRLPVAHMVCNQTPPVGDKPSLMTFREVETVFHEFGHALQHMLTKQDEGLVAGIRNIEWDAVELPSQFMENWCYHRDTLMSIAKHYETGETLPEEVYKKLLAARTFRAGSFSLRQLKFASVDLELHTKYVPGGPESIYDVDQRVSVKTQVIPPLPEDRFLASFSHIFAGGYAAGYYSYKWAEVLSADAFSAFEDAGLDDIKAVKETGQRFRNTILALGGGKAPLKVFVEFRGREPSPEPLLRHNGLLAASASA
other: percent dimer (TOP1^C699A, Q94AM1): 17%
